B1: CH493 (antibody, V domains shown)
VH: QVRLLQYGGGVKRPGASMTISCVASGYNFNDYYIHWVRQAPGQGLELMGWIDPSGGRTDYAGAFGDRVSMYRDKSMNTLYMDLRSLRSGDTAMYYCVRNVGTAGSLLHYDHWGLGVMVTVSS
VL: EIVLTQSPATLSVSPGERVTLSCRASQSVRNNLAWYRQKRGQAPRLLIYGASTRATGIPARFSGSGSGTEFTLTISSMQSEDFAVYYCQQYNNWWTFGQGTKVEIK
notes: also called CH235.9; DH493
B2: CH557 (antibody, V domains shown)
VH: QVRLAQYGGGVKRLGATMTLSCVASGYTFNDYYIHWVRQAPGQGFELLGYIDPANGRPDYAGALRERLSFYRDKSMETLYMDLRSLRYDDTAMYYCVRNVGTAGSLLHYDHWGSGSPVIVSS
VL: EIVLTQSPATLSASPGERVTLTCRASRSVRNNVAWYQHKGGQSPRLLIYDASTRAAGVPARFSGSASGTEFTLAISNLESEDFTVYFCLQYNNWWTFGQGTRVDIK
notes: also called CH235.12; CH557_4A/293i

Tests used:
SSA [1] = biological target: T1, SSA; assay: AtheNA, Ab 25 ug/ml
T1 construct: also called SSA (Ro)
Excerpt: (§1) AtheNA Multi-Lyte ANA Plus Test System is one such assay. This is luminex-based assay, which is also used to screen patient sera.

SSB [2] = biological target: T2, SSB (UniProt P05455 1-408); assay: AtheNA, Ab 25 ug/ml
T2 sequence: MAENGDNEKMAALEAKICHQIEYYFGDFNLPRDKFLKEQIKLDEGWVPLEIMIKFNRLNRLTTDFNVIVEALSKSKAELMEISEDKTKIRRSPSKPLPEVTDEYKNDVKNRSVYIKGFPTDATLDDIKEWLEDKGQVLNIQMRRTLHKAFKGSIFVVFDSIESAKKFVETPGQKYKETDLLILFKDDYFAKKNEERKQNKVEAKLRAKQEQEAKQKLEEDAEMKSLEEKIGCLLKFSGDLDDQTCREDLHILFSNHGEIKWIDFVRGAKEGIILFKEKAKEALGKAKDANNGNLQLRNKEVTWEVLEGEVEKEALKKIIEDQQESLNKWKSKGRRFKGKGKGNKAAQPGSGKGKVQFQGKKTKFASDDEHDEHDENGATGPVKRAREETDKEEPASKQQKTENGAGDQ
Excerpt: as §1

Sm (Smith antigen) [3] = biological target: T3, Sm (Smith antigen); assay: AtheNA, Ab 25 ug/ml
T3 construct: Protein complex
Excerpt: as §1

RNP (ribonucleoprotein) [4] = biological target: T4, RNP (ribonucleoprotein); assay: AtheNA, Ab 25 ug/ml
T4 construct: Protein-RNA complex
Excerpt: as §1

Scl-70 [5] = biological target: T5, Scl-70 (UniProt P11387 1-765); assay: AtheNA, Ab 25 ug/ml
T5 sequence: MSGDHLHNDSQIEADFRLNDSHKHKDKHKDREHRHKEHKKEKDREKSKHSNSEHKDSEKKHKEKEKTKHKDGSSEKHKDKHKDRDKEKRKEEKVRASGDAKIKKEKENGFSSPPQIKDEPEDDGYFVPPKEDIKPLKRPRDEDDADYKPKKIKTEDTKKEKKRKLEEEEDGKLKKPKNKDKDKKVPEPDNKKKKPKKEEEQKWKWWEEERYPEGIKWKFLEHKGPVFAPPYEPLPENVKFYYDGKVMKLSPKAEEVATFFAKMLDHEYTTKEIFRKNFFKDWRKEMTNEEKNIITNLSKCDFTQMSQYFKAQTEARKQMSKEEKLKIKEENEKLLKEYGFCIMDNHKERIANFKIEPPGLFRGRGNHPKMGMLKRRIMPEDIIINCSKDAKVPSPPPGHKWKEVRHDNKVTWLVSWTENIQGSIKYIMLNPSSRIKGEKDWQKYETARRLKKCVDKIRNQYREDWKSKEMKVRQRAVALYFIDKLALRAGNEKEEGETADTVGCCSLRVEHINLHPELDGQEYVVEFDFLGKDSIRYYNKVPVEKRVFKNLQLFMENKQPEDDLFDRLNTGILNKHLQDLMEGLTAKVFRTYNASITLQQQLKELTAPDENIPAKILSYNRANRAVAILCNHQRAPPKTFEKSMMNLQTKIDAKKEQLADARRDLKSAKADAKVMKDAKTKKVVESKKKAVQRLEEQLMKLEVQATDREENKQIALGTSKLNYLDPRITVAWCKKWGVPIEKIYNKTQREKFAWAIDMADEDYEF
Excerpt: as §1

Histones [6] = biological target: T6, Histones; assay: AtheNA, Ab 25 ug/ml
T6 construct: Mixture of proteins
Excerpt: as §1

SSA [7] = biological target: T1, SSA; assay: AtheNA, Ab 12.5 ug/ml
Excerpt: as §1

SSB [8] = biological target: T2, SSB; assay: AtheNA, Ab 12.5 ug/ml
Excerpt: as §1

Sm (Smith antigen) [9] = biological target: T3, Sm (Smith antigen); assay: AtheNA, Ab 12.5 ug/ml
Excerpt: as §1

RNP (ribonucleoprotein) [10] = biological target: T4, RNP (ribonucleoprotein); assay: AtheNA, Ab 12.5 ug/ml
Excerpt: as §1

Scl-70 [11] = biological target: T5, Scl-70; assay: AtheNA, Ab 12.5 ug/ml
Excerpt: as §1

Histones [12] = biological target: T6, Histones; assay: AtheNA, Ab 12.5 ug/ml
Excerpt: as §1

[13] = biological target: T7, HIV-1 CH505 transmitted/founder gp120 Env (HIV-1); assay: direct-binding ELISA (OD450), panel 'CH505.TF gp120'
T7 construct: domain: gp120; also called CH505.TF gp120; CH505 TF gp120 Env

SSA [14] = biological target: T1, SSA; assay: AtheNA, Ab 6.25 ug/ml
SSB [15] = biological target: T2, SSB; assay: AtheNA, Ab 6.25 ug/ml
Sm (Smith antigen) [16] = biological target: T3, Sm (Smith antigen); assay: AtheNA, Ab 6.25 ug/ml
RNP (ribonucleoprotein) [17] = biological target: T4, RNP (ribonucleoprotein); assay: AtheNA, Ab 6.25 ug/ml
Scl-70 [18] = biological target: T5, Scl-70; assay: AtheNA, Ab 6.25 ug/ml
Histones [19] = biological target: T6, Histones; assay: AtheNA, Ab 6.25 ug/ml
STUB-1 = biological target: T8, STUB-1 (human, UniProt Q9UNE7 1-303); assay: ProtoArray human protein microarray
T8 sequence: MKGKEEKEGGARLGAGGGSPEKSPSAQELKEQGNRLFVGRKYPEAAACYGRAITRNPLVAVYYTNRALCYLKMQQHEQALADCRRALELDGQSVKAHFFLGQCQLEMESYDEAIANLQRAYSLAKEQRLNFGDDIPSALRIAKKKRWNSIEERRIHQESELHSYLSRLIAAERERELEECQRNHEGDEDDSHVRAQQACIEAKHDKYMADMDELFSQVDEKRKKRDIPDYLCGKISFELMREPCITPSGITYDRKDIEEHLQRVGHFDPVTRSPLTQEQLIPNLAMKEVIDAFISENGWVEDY

Row | Binder | AtheNA signal (SSA [1]) | AtheNA signal (SSB [2]) | AtheNA signal (Sm (Smith antigen) [3]) | AtheNA signal (RNP (ribonucleoprotein) [4]) | AtheNA signal (Scl-70 [5]) | AtheNA signal (Histones [6]) | AtheNA signal (SSA [7]) | AtheNA signal (SSB [8]) | AtheNA signal (Sm (Smith antigen) [9]) | AtheNA signal (RNP (ribonucleoprotein) [10]) | AtheNA signal (Scl-70 [11]) | AtheNA signal (Histones [12]) | EC50 (read off the curve) [13] | AtheNA signal (SSA [14]) | AtheNA signal (SSB [15]) | AtheNA signal (Sm (Smith antigen) [16]) | AtheNA signal (RNP (ribonucleoprotein) [17]) | AtheNA signal (Scl-70 [18]) | AtheNA signal (Histones [19]) | binding result (STUB-1)
1 | B1 | 100 | 38 | 53 | 55 | 34 | 202 | 54 | 22 | 42 | 49 | 26 | 200 | ~0.7 µg/mL |  |  |  |  |  |  | 
2 | B2 |  |  |  |  |  |  |  |  |  |  |  |  |  | 4 relative luminescence units | 5 relative luminescence units | 4 relative luminescence units | 4 relative luminescence units | 3 relative luminescence units | 4 relative luminescence units | no binding
